To fix the notation:
B1: library; numbered along this chain (parent)
chain: MEVVDPQQLGMFTEGELMSVGMDTFIHRIDSTEVIYQPRRKRAKLIGKYLMGDLLGEGSYGKVKEVLDSETLCRRAVKILKKKKLRRIPNGEANVKKEIQLLRRLRHKNVIQLVDVLYNEEKQKMYMVMEYCVCGMQEMLDSVPEKRFPVCQAHGYFCQLIDGLEYLHSQGIVHKDIKPGNLLLTTGGTLKISDLGVAEALHPFAADDTCRTSQGSPAFQPPEIANGLDTFSGFKVDIWSAGVTLYNITTGLYPFEGDNIYKLFENIGKGSYAIPGDCGPPLSDLLKGMLEYEPAKRFSIRQIRQHSWFRKKHPPAEAPVPIPPSPDTKDRWRSMTVVPYLEDLHGADEDEDLFDIEDDIIYTQDFTVPGQVPEEEASHNGQRRGLPKAVCMNGTEAAQLSTKSRAEGRAPNPARKACSASSKIRRLSACKQQ

The results in this text go back to the supplement of paper PMC12338614.

± gives the uncertainty stated by the source.

This data set covers variants of B1. The data set can be described thus: STK11 functional score (HeLa growth suppression), rescaled enrichment; synonymous median = 1, nonsense median = 0 (normalised score). The settings on record: with HeLa; variant type: missense. How it is done:
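Deep mutational scan (TileSeq/POPCode codon randomisation) of full-length codon-optimised STK11 cDNA integrated at a Bxb1 landing pad (AAVS1) in HeLa cells. Restoring functional STK11 suppresses HeLa proliferation. Variant frequencies were measured by NGS before and after about two weeks of growth. The error-corrected enrichment log-ratio was rescaled so that synonymous median = 1 and nonsense median = 0, scores above 1 were compressed, and codon-level and three biological replicate scores were combined; error is the bootstrapped standard error. Scale: synonymous median = 1, nonsense median = 0; below 0.5 = damaging.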
Consider MEVVDPQQLGMFTEGELMSVGMDTFIHRIDSTEVIYQPRRKRAKLIGKYLSGDLLGEGSYGKVKEVLDSETLCRRAVKILKKKKLRRIPNGEANVKKEIQLLRRLRHKNVIQLVDVLYNEEKQKMYMVMEYCVCGMQEMLDSVPEKRFPVCQAHGYFCQLIDGLEYLHSQGIVHKDIKPGNLLLTTGGTLKISDLGVAEALHPFAADDTCRTSQGSPAFQPPEIANGLDTFSGFKVDIWSAGVTLYNITTGLYPFEGDNIYKLFENIGKGSYAIPGDCGPPLSDLLKGMLEYEPAKRFSIRQIRQHSWFRKKHPPAEAPVPIPPSPDTKDRWRSMTVVPYLEDLHGADEDEDLFDIEDDIIYTQDFTVPGQVPEEEASHNGQRRGLPKAVCMNGTEAAQLSTKSRAEGRAPNPARKACSASSKIRRLSACKQQ [M51S], for which the STK11 functional score is 0.844 ± 0.24.

For the variant MEVVDPQQLGMFTEGELMSVGMDTFIHRIDSTEVIYQPRRKRAKLIGKYLYGDLLGEGSYGKVKEVLDSETLCRRAVKILKKKKLRRIPNGEANVKKEIQLLRRLRHKNVIQLVDVLYNEEKQKMYMVMEYCVCGMQEMLDSVPEKRFPVCQAHGYFCQLIDGLEYLHSQGIVHKDIKPGNLLLTTGGTLKISDLGVAEALHPFAADDTCRTSQGSPAFQPPEIANGLDTFSGFKVDIWSAGVTLYNITTGLYPFEGDNIYKLFENIGKGSYAIPGDCGPPLSDLLKGMLEYEPAKRFSIRQIRQHSWFRKKHPPAEAPVPIPPSPDTKDRWRSMTVVPYLEDLHGADEDEDLFDIEDDIIYTQDFTVPGQVPEEEASHNGQRRGLPKAVCMNGTEAAQLSTKSRAEGRAPNPARKACSASSKIRRLSACKQQ [M51Y], the STK11 functional score was found to be 1.62 ± 0.27.

For MEVVDPQQLGMFTEGELMSVGMDTFIHRIDSTEVIYQPRRKRAKLIGKYLIGDLLGEGSYGKVKEVLDSETLCRRAVKILKKKKLRRIPNGEANVKKEIQLLRRLRHKNVIQLVDVLYNEEKQKMYMVMEYCVCGMQEMLDSVPEKRFPVCQAHGYFCQLIDGLEYLHSQGIVHKDIKPGNLLLTTGGTLKISDLGVAEALHPFAADDTCRTSQGSPAFQPPEIANGLDTFSGFKVDIWSAGVTLYNITTGLYPFEGDNIYKLFENIGKGSYAIPGDCGPPLSDLLKGMLEYEPAKRFSIRQIRQHSWFRKKHPPAEAPVPIPPSPDTKDRWRSMTVVPYLEDLHGADEDEDLFDIEDDIIYTQDFTVPGQVPEEEASHNGQRRGLPKAVCMNGTEAAQLSTKSRAEGRAPNPARKACSASSKIRRLSACKQQ [M51I], the STK11 functional score amounted to 1.16 ± 0.4.

Consider MEVVDPQQLGMFTEGELMSVGMDTFIHRIDSTEVIYQPRRKRAKLIGKYLHGDLLGEGSYGKVKEVLDSETLCRRAVKILKKKKLRRIPNGEANVKKEIQLLRRLRHKNVIQLVDVLYNEEKQKMYMVMEYCVCGMQEMLDSVPEKRFPVCQAHGYFCQLIDGLEYLHSQGIVHKDIKPGNLLLTTGGTLKISDLGVAEALHPFAADDTCRTSQGSPAFQPPEIANGLDTFSGFKVDIWSAGVTLYNITTGLYPFEGDNIYKLFENIGKGSYAIPGDCGPPLSDLLKGMLEYEPAKRFSIRQIRQHSWFRKKHPPAEAPVPIPPSPDTKDRWRSMTVVPYLEDLHGADEDEDLFDIEDDIIYTQDFTVPGQVPEEEASHNGQRRGLPKAVCMNGTEAAQLSTKSRAEGRAPNPARKACSASSKIRRLSACKQQ [M51H], for which the STK11 functional score is 1.68 ± 0.32.

Take MEVVDPQQLGMFTEGELMSVGMDTFIHRIDSTEVIYQPRRKRAKLIGKYLQGDLLGEGSYGKVKEVLDSETLCRRAVKILKKKKLRRIPNGEANVKKEIQLLRRLRHKNVIQLVDVLYNEEKQKMYMVMEYCVCGMQEMLDSVPEKRFPVCQAHGYFCQLIDGLEYLHSQGIVHKDIKPGNLLLTTGGTLKISDLGVAEALHPFAADDTCRTSQGSPAFQPPEIANGLDTFSGFKVDIWSAGVTLYNITTGLYPFEGDNIYKLFENIGKGSYAIPGDCGPPLSDLLKGMLEYEPAKRFSIRQIRQHSWFRKKHPPAEAPVPIPPSPDTKDRWRSMTVVPYLEDLHGADEDEDLFDIEDDIIYTQDFTVPGQVPEEEASHNGQRRGLPKAVCMNGTEAAQLSTKSRAEGRAPNPARKACSASSKIRRLSACKQQ [M51Q]: the STK11 functional score was found to be 1.66 ± 0.16.

On to MEVVDPQQLGMFTEGELMSVGMDTFIHRIDSTEVIYQPRRKRAKLIGKYLWGDLLGEGSYGKVKEVLDSETLCRRAVKILKKKKLRRIPNGEANVKKEIQLLRRLRHKNVIQLVDVLYNEEKQKMYMVMEYCVCGMQEMLDSVPEKRFPVCQAHGYFCQLIDGLEYLHSQGIVHKDIKPGNLLLTTGGTLKISDLGVAEALHPFAADDTCRTSQGSPAFQPPEIANGLDTFSGFKVDIWSAGVTLYNITTGLYPFEGDNIYKLFENIGKGSYAIPGDCGPPLSDLLKGMLEYEPAKRFSIRQIRQHSWFRKKHPPAEAPVPIPPSPDTKDRWRSMTVVPYLEDLHGADEDEDLFDIEDDIIYTQDFTVPGQVPEEEASHNGQRRGLPKAVCMNGTEAAQLSTKSRAEGRAPNPARKACSASSKIRRLSACKQQ [M51W], for which the STK11 functional score amounted to 0.189 ± 0.32.

Take MEVVDPQQLGMFTEGELMSVGMDTFIHRIDSTEVIYQPRRKRAKLIGKYLGGDLLGEGSYGKVKEVLDSETLCRRAVKILKKKKLRRIPNGEANVKKEIQLLRRLRHKNVIQLVDVLYNEEKQKMYMVMEYCVCGMQEMLDSVPEKRFPVCQAHGYFCQLIDGLEYLHSQGIVHKDIKPGNLLLTTGGTLKISDLGVAEALHPFAADDTCRTSQGSPAFQPPEIANGLDTFSGFKVDIWSAGVTLYNITTGLYPFEGDNIYKLFENIGKGSYAIPGDCGPPLSDLLKGMLEYEPAKRFSIRQIRQHSWFRKKHPPAEAPVPIPPSPDTKDRWRSMTVVPYLEDLHGADEDEDLFDIEDDIIYTQDFTVPGQVPEEEASHNGQRRGLPKAVCMNGTEAAQLSTKSRAEGRAPNPARKACSASSKIRRLSACKQQ [M51G]: the STK11 functional score came to 1.1 ± 0.091.

As for MEVVDPQQLGMFTEGELMSVGMDTFIHRIDSTEVIYQPRRKRAKLIGKYLPGDLLGEGSYGKVKEVLDSETLCRRAVKILKKKKLRRIPNGEANVKKEIQLLRRLRHKNVIQLVDVLYNEEKQKMYMVMEYCVCGMQEMLDSVPEKRFPVCQAHGYFCQLIDGLEYLHSQGIVHKDIKPGNLLLTTGGTLKISDLGVAEALHPFAADDTCRTSQGSPAFQPPEIANGLDTFSGFKVDIWSAGVTLYNITTGLYPFEGDNIYKLFENIGKGSYAIPGDCGPPLSDLLKGMLEYEPAKRFSIRQIRQHSWFRKKHPPAEAPVPIPPSPDTKDRWRSMTVVPYLEDLHGADEDEDLFDIEDDIIYTQDFTVPGQVPEEEASHNGQRRGLPKAVCMNGTEAAQLSTKSRAEGRAPNPARKACSASSKIRRLSACKQQ [M51P], the STK11 functional score was determined as 1.66 ± 0.35.

MEVVDPQQLGMFTEGELMSVGMDTFIHRIDSTEVIYQPRRKRAKLIGKYLLGDLLGEGSYGKVKEVLDSETLCRRAVKILKKKKLRRIPNGEANVKKEIQLLRRLRHKNVIQLVDVLYNEEKQKMYMVMEYCVCGMQEMLDSVPEKRFPVCQAHGYFCQLIDGLEYLHSQGIVHKDIKPGNLLLTTGGTLKISDLGVAEALHPFAADDTCRTSQGSPAFQPPEIANGLDTFSGFKVDIWSAGVTLYNITTGLYPFEGDNIYKLFENIGKGSYAIPGDCGPPLSDLLKGMLEYEPAKRFSIRQIRQHSWFRKKHPPAEAPVPIPPSPDTKDRWRSMTVVPYLEDLHGADEDEDLFDIEDDIIYTQDFTVPGQVPEEEASHNGQRRGLPKAVCMNGTEAAQLSTKSRAEGRAPNPARKACSASSKIRRLSACKQQ [M51L]: the STK11 functional score was 0.806 ± 0.15.

For the variant MEVVDPQQLGMFTEGELMSVGMDTFIHRIDSTEVIYQPRRKRAKLIGKYLRGDLLGEGSYGKVKEVLDSETLCRRAVKILKKKKLRRIPNGEANVKKEIQLLRRLRHKNVIQLVDVLYNEEKQKMYMVMEYCVCGMQEMLDSVPEKRFPVCQAHGYFCQLIDGLEYLHSQGIVHKDIKPGNLLLTTGGTLKISDLGVAEALHPFAADDTCRTSQGSPAFQPPEIANGLDTFSGFKVDIWSAGVTLYNITTGLYPFEGDNIYKLFENIGKGSYAIPGDCGPPLSDLLKGMLEYEPAKRFSIRQIRQHSWFRKKHPPAEAPVPIPPSPDTKDRWRSMTVVPYLEDLHGADEDEDLFDIEDDIIYTQDFTVPGQVPEEEASHNGQRRGLPKAVCMNGTEAAQLSTKSRAEGRAPNPARKACSASSKIRRLSACKQQ [M51R], the STK11 functional score amounted to 1.16 ± 0.5.

In the case of MEVVDPQQLGMFTEGELMSVGMDTFIHRIDSTEVIYQPRRKRAKLIGKYLVGDLLGEGSYGKVKEVLDSETLCRRAVKILKKKKLRRIPNGEANVKKEIQLLRRLRHKNVIQLVDVLYNEEKQKMYMVMEYCVCGMQEMLDSVPEKRFPVCQAHGYFCQLIDGLEYLHSQGIVHKDIKPGNLLLTTGGTLKISDLGVAEALHPFAADDTCRTSQGSPAFQPPEIANGLDTFSGFKVDIWSAGVTLYNITTGLYPFEGDNIYKLFENIGKGSYAIPGDCGPPLSDLLKGMLEYEPAKRFSIRQIRQHSWFRKKHPPAEAPVPIPPSPDTKDRWRSMTVVPYLEDLHGADEDEDLFDIEDDIIYTQDFTVPGQVPEEEASHNGQRRGLPKAVCMNGTEAAQLSTKSRAEGRAPNPARKACSASSKIRRLSACKQQ [M51V], the STK11 functional score amounted to 0.725 ± 0.34.

Consider MEVVDPQQLGMFTEGELMSVGMDTFIHRIDSTEVIYQPRRKRAKLIGKYLKGDLLGEGSYGKVKEVLDSETLCRRAVKILKKKKLRRIPNGEANVKKEIQLLRRLRHKNVIQLVDVLYNEEKQKMYMVMEYCVCGMQEMLDSVPEKRFPVCQAHGYFCQLIDGLEYLHSQGIVHKDIKPGNLLLTTGGTLKISDLGVAEALHPFAADDTCRTSQGSPAFQPPEIANGLDTFSGFKVDIWSAGVTLYNITTGLYPFEGDNIYKLFENIGKGSYAIPGDCGPPLSDLLKGMLEYEPAKRFSIRQIRQHSWFRKKHPPAEAPVPIPPSPDTKDRWRSMTVVPYLEDLHGADEDEDLFDIEDDIIYTQDFTVPGQVPEEEASHNGQRRGLPKAVCMNGTEAAQLSTKSRAEGRAPNPARKACSASSKIRRLSACKQQ [M51K], for which the STK11 functional score was determined as 1.32 ± 0.35.

Turning to MEVVDPQQLGMFTEGELMSVGMDTFIHRIDSTEVIYQPRRKRAKLIGKYLAGDLLGEGSYGKVKEVLDSETLCRRAVKILKKKKLRRIPNGEANVKKEIQLLRRLRHKNVIQLVDVLYNEEKQKMYMVMEYCVCGMQEMLDSVPEKRFPVCQAHGYFCQLIDGLEYLHSQGIVHKDIKPGNLLLTTGGTLKISDLGVAEALHPFAADDTCRTSQGSPAFQPPEIANGLDTFSGFKVDIWSAGVTLYNITTGLYPFEGDNIYKLFENIGKGSYAIPGDCGPPLSDLLKGMLEYEPAKRFSIRQIRQHSWFRKKHPPAEAPVPIPPSPDTKDRWRSMTVVPYLEDLHGADEDEDLFDIEDDIIYTQDFTVPGQVPEEEASHNGQRRGLPKAVCMNGTEAAQLSTKSRAEGRAPNPARKACSASSKIRRLSACKQQ [M51A], the STK11 functional score was 1.45 ± 0.6.

With MEVVDPQQLGMFTEGELMSVGMDTFIHRIDSTEVIYQPRRKRAKLIGKYLTGDLLGEGSYGKVKEVLDSETLCRRAVKILKKKKLRRIPNGEANVKKEIQLLRRLRHKNVIQLVDVLYNEEKQKMYMVMEYCVCGMQEMLDSVPEKRFPVCQAHGYFCQLIDGLEYLHSQGIVHKDIKPGNLLLTTGGTLKISDLGVAEALHPFAADDTCRTSQGSPAFQPPEIANGLDTFSGFKVDIWSAGVTLYNITTGLYPFEGDNIYKLFENIGKGSYAIPGDCGPPLSDLLKGMLEYEPAKRFSIRQIRQHSWFRKKHPPAEAPVPIPPSPDTKDRWRSMTVVPYLEDLHGADEDEDLFDIEDDIIYTQDFTVPGQVPEEEASHNGQRRGLPKAVCMNGTEAAQLSTKSRAEGRAPNPARKACSASSKIRRLSACKQQ [M51T], the STK11 functional score came out at 1.21 ± 0.37.
